Where “and” joins values, the source holds several entries; their conditions need not be identical. Identical values can stand only once. Marks after values point to notes of the source that are not given here.
B1: UGT1A4^24Pro/48Val (Homo sapiens; L48V) (protein)
chain: GKVLVVPTDGSPWLSMREAVRELHARGHQAVVLTPEVNMHIKEEKFFTLTAYAVPWTQKEFDRVTLGYTQGFFETEHLLKRYSRSMAIMNNVSLALHRCCVELLHNEALIRHLNATSFDVVLTDPVNLCGAVLAKYLSIPAVFFWRYIPCDLDFKGTQCPNPSSYIPKLLTTNSDHMTFLQRVKNMLYPLALSYICHTFSAPYASLASELFQREVSVVDLVSYASVWLFRGDFVMDYPRPIMPNMVFIGGINCANGKPLSQEFEAYINASGEHGIVVFSLGSMVSEIPEKKAMAIADALGKIPQTVLWRYTGTRPSNLANNTILVKWLPQNDLLGHPMTRAFITHAGSHGVYESICNGVPMVMMPLFGDQMDNAKRMETKGAGVTLNVLEMTSEDLENALKAVINDKSYKENIMRLSSLHKDRPVEPLDLAVFWVEFVMRHKGAPHLRPAAHDLTWYQYHSLDVIGFLLAVVLTVAFITFKCCAYGYRKCLGKKGRVKKAHKSKTH
B2: UGT1A1 (Homo sapiens) (protein)
chain: HAGKILLIPVDGSHWLSMLGAIQQLQQRGHEIVVLAPDASLYIRDGAFYTLKTYPVPFQREDVKESFVSLGHNVFENDSFLQRVIKTYKKIKKDSAMLLSGCSHLLHNKELMASLAESSFDVMLTDPFLPCSPIVAQYLSLPTVFFLHALPCSLEFEATQCPNPFSYVPRPLSSHSDHMTFLQRVKNMLIAFSQNFLCDVVYSPYATLASEFLQREVTVQDLLSSASVWLFRSDFVKDYPRPIMPNMVFVGGINCLHQNPLSQEFEAYINASGEHGIVVFSLGSMVSEIPEKKAMAIADALGKIPQTVLWRYTGTRPSNLANNTILVKWLPQNDLLGHPMTRAFITHAGSHGVYESICNGVPMVMMPLFGDQMDNAKRMETKGAGVTLNVLEMTSEDLENALKAVINDKSYKENIMRLSSLHKDRPVEPLDLAVFWVEFVMRHKGAPHLRPAAHDLTWYQYHSLDVIGFLLAVVLTVAFITFKCCAYGYRKCLGKKGRVKKAHKSKTH
B3: UGT1A4^24Thr/48Leu (Homo sapiens) (protein)
chain: MARGLQVPLPRLATGLLLLLSVQPWAESGKVLVVPTDGSPWLSMREALRELHARGHQAVVLTPEVNMHIKEEKFFTLTAYAVPWTQKEFDRVTLGYTQGFFETEHLLKRYSRSMAIMNNVSLALHRCCVELLHNEALIRHLNATSFDVVLTDPVNLCGAVLAKYLSIPAVFFWRYIPCDLDFKGTQCPNPSSYIPKLLTTNSDHMTFLQRVKNMLYPLALSYICHTFSAPYASLASELFQREVSVVDLVSYASVWLFRGDFVMDYPRPIMPNMVFIGGINCANGKPLSQEFEAYINASGEHGIVVFSLGSMVSEIPEKKAMAIADALGKIPQTVLWRYTGTRPSNLANNTILVKWLPQNDLLGHPMTRAFITHAGSHGVYESICNGVPMVMMPLFGDQMDNAKRMETKGAGVTLNVLEMTSEDLENALKAVINDKSYKENIMRLSSLHKDRPVEPLDLAVFWVEFVMRHKGAPHLRPAAHDLTWYQYHSLDVIGFLLAVVLTVAFITFKCCAYGYRKCLGKKGRVKKAHKSKTH

Legend:
[1] = substrate: Clc1ccc2c(c1)N=C(N1CCNCC1)c1ccccc1N2; assay: cells, lysate or membranes named; settings: other: substrate dmCLZ
[2] = substrate: CN1CCN(C2=Nc3cc(Cl)ccc3Nc3ccccc32)CC1; assay: cells, lysate or membranes named; settings: other: substrate CLZ

Protein	Km [1]	Vmax [1] [µmol/min/mg]	Vmax/Km [1] [µL/min/mg]	Km [2]	Vmax [2] [µmol/min/mg]	Vmax/Km [2] [µL/min/mg]
B1	173 ± 22^e μM	0.017 ± 0.0013	96 ± 8	–	–	–
B2	–	–	–	53 ± 2^a,b μM	0.00086 ± 2e-05	17 ± 0.6
B3	440 ± 45^b μM	0.0064 ± 0.0009	15 ± 1.5	167 ± 19^d μM and 459 ± 23^e μM	–	–

Reference: paper PMC6278935 (Pharmacogenetics and genomics, 2012)
